Legend:
[1] = system: AncSZ; assay: phosphorylation enrichment, bacterial display (enrichment ratio); higher = better substrate or ligand; peptides without Tyr show the background
[2] = target: EPHB1 (UniProt P54762); assay: as above
[3] = target: EPHB2 (UniProt P29323); assay: as above
[4] = target: FGFR1 (UniProt P11362); assay: as above
[5] = target: FGFR3 (UniProt P22607); assay: as above
[6] = system: Fer (mouse); assay: as above
[7] = target: Fes (UniProt P07332); assay: as above
[8] = target: Fyn (UniProt P06241); assay: as above
Chain of Fyn (P06241 whole entry, looked up): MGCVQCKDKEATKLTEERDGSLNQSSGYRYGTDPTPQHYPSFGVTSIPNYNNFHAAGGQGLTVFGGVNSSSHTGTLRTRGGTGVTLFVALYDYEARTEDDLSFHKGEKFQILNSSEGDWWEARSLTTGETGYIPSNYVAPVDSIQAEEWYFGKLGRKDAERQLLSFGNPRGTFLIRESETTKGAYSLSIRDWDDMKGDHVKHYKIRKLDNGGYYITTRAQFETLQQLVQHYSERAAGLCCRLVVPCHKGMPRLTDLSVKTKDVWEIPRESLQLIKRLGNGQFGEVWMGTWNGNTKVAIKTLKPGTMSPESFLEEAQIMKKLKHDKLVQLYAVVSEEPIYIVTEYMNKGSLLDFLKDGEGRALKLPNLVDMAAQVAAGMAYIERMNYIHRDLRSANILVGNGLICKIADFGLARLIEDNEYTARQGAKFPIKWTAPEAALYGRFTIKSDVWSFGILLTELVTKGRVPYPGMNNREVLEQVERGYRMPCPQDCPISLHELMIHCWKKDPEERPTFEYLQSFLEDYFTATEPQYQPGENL

[9] = target: Hck (UniProt P08631); assay: as above
Chain of Hck (P08631 whole entry, looked up): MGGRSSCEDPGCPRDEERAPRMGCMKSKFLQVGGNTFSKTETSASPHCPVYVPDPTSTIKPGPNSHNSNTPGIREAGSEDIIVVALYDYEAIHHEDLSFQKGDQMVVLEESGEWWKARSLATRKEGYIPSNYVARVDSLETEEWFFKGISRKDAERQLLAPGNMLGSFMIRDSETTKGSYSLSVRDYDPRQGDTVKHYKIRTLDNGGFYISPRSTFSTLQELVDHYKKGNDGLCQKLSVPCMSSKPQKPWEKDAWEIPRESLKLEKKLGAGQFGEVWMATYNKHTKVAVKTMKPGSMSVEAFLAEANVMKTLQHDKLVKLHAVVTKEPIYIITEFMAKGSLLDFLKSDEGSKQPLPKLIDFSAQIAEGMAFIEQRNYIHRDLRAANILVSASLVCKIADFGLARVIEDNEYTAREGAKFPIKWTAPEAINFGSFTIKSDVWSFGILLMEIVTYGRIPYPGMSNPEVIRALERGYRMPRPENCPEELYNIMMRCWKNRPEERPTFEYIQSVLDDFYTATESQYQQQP

[10] = target: Jak2 (UniProt O60674); assay: as above
[11] = target: MERTK (UniProt Q12866); assay: as above
Chain of MERTK (Q12866 whole entry, looked up): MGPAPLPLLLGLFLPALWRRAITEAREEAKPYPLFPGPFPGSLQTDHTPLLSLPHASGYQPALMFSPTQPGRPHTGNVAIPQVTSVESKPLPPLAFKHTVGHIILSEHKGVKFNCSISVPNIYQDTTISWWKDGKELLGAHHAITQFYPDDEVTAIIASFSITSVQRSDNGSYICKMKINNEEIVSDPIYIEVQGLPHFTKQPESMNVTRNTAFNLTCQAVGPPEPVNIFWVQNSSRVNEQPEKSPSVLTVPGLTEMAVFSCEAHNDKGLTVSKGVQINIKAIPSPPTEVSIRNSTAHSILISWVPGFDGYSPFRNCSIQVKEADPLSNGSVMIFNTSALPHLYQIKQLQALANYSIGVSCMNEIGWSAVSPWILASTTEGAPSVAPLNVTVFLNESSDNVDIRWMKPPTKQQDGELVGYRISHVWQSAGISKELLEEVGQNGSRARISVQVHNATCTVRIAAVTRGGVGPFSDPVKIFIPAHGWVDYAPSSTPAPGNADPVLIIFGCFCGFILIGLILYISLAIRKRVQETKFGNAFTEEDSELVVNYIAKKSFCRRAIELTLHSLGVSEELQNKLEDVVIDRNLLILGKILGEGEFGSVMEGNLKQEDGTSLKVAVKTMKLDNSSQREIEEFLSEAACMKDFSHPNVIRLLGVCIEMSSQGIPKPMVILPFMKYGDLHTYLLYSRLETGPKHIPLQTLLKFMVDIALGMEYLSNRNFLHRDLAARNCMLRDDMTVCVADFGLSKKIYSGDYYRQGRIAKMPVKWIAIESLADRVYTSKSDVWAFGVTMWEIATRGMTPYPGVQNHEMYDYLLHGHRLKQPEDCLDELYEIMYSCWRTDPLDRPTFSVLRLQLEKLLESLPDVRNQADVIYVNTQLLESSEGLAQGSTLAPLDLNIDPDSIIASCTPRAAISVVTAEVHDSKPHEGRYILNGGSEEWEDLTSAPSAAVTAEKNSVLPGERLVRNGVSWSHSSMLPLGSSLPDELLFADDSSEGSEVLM

[12] = system: c-Abl (mouse); assay: as above
[13] = system: c-Src; assay: as above
[14] = target: Grb2 SH2 (UniProt P62993); assay: SH2 binding enrichment of the phosphorylated peptide, bacterial display (enrichment ratio); higher = better substrate or ligand; peptides without Tyr show the background
Chain of Grb2 SH2 (P62993 whole entry, looked up): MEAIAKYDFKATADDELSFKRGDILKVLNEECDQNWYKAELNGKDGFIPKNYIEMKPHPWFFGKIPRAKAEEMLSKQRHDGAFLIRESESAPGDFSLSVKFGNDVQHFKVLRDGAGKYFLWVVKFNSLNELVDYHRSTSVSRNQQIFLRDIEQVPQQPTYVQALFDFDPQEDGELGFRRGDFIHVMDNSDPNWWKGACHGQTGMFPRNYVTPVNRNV

[15] = target: SHP2-C SH2; assay: as above
[16] = target: c-Src SH2; assay: as above
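Wherever SH2 binding enrichment of the phosphorylated peptide, bacterial display is given: peptide library displayed on the E. coli surface as eCPX fusions, selected cells deep-sequenced, score is each peptide's frequency after selection divided by its frequency in the input.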
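Wherever phosphorylation enrichment, bacterial display is given: 11-residue human phosphosite peptides and single-mutation variants displayed on the E. coli surface, counted by deep sequencing, each peptide's frequency after selection divided by its frequency in the unselected input library; frequency after pTyr selection over input frequency; kinase dosed for 20-30% of maximal phosphorylation in three min.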

Chain of EPHB1 (P54762 whole entry, looked up): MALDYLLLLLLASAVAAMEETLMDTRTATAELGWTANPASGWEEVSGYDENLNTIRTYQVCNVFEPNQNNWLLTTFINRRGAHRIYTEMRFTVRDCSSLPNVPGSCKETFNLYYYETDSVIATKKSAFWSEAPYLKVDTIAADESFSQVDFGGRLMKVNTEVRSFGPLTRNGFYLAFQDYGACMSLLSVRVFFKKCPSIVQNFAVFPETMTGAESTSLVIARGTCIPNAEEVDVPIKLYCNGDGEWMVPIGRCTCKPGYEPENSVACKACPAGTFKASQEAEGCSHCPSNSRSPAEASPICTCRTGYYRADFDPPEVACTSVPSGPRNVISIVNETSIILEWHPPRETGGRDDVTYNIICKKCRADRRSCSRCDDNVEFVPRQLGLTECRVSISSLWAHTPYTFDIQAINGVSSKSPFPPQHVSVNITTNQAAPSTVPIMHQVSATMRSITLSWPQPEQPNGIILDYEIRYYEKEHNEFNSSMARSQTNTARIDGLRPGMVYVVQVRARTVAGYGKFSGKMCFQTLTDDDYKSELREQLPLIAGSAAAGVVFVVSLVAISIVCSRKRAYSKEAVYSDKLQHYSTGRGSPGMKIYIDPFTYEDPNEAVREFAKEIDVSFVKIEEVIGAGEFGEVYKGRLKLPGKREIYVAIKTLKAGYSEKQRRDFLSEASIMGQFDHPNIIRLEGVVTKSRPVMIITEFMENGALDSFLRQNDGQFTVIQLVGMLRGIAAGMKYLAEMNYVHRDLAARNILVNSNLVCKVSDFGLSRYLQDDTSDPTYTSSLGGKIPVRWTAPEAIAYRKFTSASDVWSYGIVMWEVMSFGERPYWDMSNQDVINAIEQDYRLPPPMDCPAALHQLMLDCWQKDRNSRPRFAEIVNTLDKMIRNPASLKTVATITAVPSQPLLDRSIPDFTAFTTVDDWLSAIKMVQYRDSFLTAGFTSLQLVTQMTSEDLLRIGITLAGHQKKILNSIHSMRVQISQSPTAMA
Chain of FGFR3 (P22607 whole entry, looked up): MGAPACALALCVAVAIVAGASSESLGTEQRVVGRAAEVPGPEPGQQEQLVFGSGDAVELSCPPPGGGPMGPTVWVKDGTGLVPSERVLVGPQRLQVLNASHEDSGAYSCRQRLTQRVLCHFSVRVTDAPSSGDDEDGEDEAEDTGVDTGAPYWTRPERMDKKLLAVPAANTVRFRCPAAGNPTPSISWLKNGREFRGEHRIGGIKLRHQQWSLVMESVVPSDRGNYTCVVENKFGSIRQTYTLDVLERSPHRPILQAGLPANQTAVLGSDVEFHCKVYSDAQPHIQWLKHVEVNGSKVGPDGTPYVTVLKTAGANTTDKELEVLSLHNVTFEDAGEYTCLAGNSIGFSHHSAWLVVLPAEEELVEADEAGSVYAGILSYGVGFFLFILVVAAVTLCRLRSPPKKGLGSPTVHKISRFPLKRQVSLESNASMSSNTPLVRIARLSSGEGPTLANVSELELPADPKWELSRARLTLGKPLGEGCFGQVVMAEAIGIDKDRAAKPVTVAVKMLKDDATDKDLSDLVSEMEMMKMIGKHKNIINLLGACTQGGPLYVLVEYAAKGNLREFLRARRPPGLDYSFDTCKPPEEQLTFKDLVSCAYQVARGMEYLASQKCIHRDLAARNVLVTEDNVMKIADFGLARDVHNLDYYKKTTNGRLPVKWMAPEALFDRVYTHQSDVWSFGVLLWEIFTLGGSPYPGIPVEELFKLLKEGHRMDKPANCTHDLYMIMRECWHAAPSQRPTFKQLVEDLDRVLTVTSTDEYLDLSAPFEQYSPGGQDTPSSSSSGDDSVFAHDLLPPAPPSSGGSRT
Chain of FGFR1 (P11362 whole entry, looked up): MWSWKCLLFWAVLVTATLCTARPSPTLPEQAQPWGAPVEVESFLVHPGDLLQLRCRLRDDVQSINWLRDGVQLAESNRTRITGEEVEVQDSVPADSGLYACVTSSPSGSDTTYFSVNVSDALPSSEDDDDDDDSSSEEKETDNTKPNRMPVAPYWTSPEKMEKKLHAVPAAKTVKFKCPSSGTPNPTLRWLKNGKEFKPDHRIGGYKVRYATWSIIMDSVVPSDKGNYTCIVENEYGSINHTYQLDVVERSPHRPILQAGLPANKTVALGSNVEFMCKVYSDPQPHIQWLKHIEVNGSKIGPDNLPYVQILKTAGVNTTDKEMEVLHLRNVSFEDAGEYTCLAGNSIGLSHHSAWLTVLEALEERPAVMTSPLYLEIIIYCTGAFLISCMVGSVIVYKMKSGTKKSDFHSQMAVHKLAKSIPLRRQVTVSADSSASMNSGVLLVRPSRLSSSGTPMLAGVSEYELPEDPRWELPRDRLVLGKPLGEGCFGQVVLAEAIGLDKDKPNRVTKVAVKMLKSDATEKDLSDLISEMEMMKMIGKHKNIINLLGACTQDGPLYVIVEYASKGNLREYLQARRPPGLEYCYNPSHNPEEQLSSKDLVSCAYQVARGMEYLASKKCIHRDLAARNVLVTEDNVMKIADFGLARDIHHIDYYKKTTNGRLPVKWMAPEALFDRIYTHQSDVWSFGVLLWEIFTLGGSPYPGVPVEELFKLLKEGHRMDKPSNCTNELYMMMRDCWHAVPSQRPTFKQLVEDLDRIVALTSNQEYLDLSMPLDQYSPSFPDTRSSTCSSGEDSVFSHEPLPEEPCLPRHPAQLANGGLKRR

Sequence	phosphorylation enrichment [1]	phosphorylation enrichment [2]	phosphorylation enrichment [3]	phosphorylation enrichment [4]	phosphorylation enrichment [5]	phosphorylation enrichment [6]	phosphorylation enrichment [7]	phosphorylation enrichment [8]	phosphorylation enrichment [9]	phosphorylation enrichment [10]	phosphorylation enrichment [11]	phosphorylation enrichment [12]	phosphorylation enrichment [13]	SH2 binding enrichment [14]	SH2 binding enrichment [15]	SH2 binding enrichment [16]
GSIQQYTFKQE [PRG4_Y1271_I1272T_YF]	0.703	0.484	0.451	0.369	0.573	0.427	0.785	0.345	0.347	0.641	0.322	0.728	0.356	0.829	0.937	0.53
GSRGKYFSGFR [ATM_Y332_S333F]	0.547	0.425	0.399	0.415	0.412	0.325	0.736	0.386	0.351	0.885	0.481	0.657	0.616	0.963	0.833	0.544
GVLKEYGEKVL [CPS1_Y529_V531E]	0.742	0.42	0.474	0.419	0.466	0.405	0.719	0.425	0.422	0.573	0.415	0.648	0.396	0.921	0.767	0.427
GVMLLYYGRYN [ADGRD1_Y85_T82M]	1.53	0.616	0.761	0.556	0.6	0.515	1.24	1.24	1.21	1.34	0.416	0.594	2.23	1.17	0.921	0.96
GVRLFYRVRES [RB1_Y454_M457R_YF]	1.25	0.471	0.529	0.513	0.65	0.461	1.16	0.417	0.375	1.05	0.383	0.976	0.349	0.705	0.578	0.476
GVTLLYFGRDN [ADGRD1_Y85_Y89D_YF]	0.887	0.633	0.424	0.488	0.737	0.481	1.04	0.353	0.516	0.937	0.321	0.643	0.398	1.63	1.19	1.16
GVYSRHFTTYD [CLCA1_Y661_Y661H]	0.823	0.495	0.473	0.389	0.508	0.642	0.657	0.648	1.31	0.507	0.569	0.359	0.768	0.713	0.714	0.477
GYDHSYYFIAT [ESD_Y262]	2.05	1.95	1.24	11.1	9.89	1.1	1.22	1.41	2.02	6.79	4.8	0.759	1.57	0.702	0.727	0.871
GYYDLYGGEKF [PTPN11_Y66_D61G]	1.3	3.27	9.35	10.9	8.65	3.13	0.931	7.27	6.7	3.15	6.61	0.68	4.54	0.939	0.778	3.86

— the supplement of paper PMC10065799, “High-throughput profiling of sequence recognition by tyrosine kinases and SH2 domains using bacterial peptide display” (eLife, 2023)
